Results published in the RNAGym collection of RNA variant scans (doi:10.7554/elife.80360).

B1: HDV Ribozyme (parent)
chain: GGCCGGCAUGGUCCCAGCCUCCUCGCUGGCGCCGGCUGGGCAACAUUCCGAGGGGACCGUCCCCUCGGUAAUGGCGAAUGGGACCCA

Variants of: B1
Test: self-cleavage, relative activity (ratio to wild type); higher = more cleavage; co-transcriptional

For A42C C62A, which self-cleavage is on record?
The self-cleavage was 0.365.

For A42C C58U, which self-cleavage is on record?
The self-cleavage was 0.322.

With C41G G73A as the variant, how does the self-cleavage read?
The self-cleavage was 0.712.

For C41G G73C, which self-cleavage is on record?
The self-cleavage was 0.877.

For A43C A56U, which self-cleavage is on record?
The self-cleavage was 0.584.

With G40U U65A as the variant, how does the self-cleavage read?
The self-cleavage was 0.808.

Which self-cleavage does the source give for A42U C44G here?
Its self-cleavage is 0.464.

For A42C U69C, which self-cleavage is on record?
The self-cleavage was 0.399.

For A42C U69G, which self-cleavage is on record?
Its self-cleavage is 0.246.

Which self-cleavage does the source give for A43C C44U here?
The self-cleavage was 0.923.

For A43C C44G, which self-cleavage is on record?
Its self-cleavage is 0.458.

Which self-cleavage does the source give for A43G A71U here?
Its self-cleavage is 0.95.

Which self-cleavage does the source give for A43G A71C here?
The self-cleavage was 1.01.

For A42G U65C, which self-cleavage is on record?
The self-cleavage was 0.643.

Which self-cleavage does the source give for G40U C49U here?
Its self-cleavage is 0.817.

With A42G U69A as the variant, how does the self-cleavage read?
The self-cleavage was 0.554.

With A42G U69G as the variant, how does the self-cleavage read?
The self-cleavage was 0.554.

Which self-cleavage does the source give for A43U C58U here?
The self-cleavage was 0.462.

Which self-cleavage does the source give for A43U C57G here?
Its self-cleavage is 0.674.

With C41G G59U as the variant, how does the self-cleavage read?
Its self-cleavage is 0.969.

For C41U C58U, which self-cleavage is on record?
Its self-cleavage is 1.17.

With A42G U47A as the variant, how does the self-cleavage read?
Its self-cleavage is 0.391.

For A42G G81U, which self-cleavage is on record?
Its self-cleavage is 0.0346.

For A43U C66A, which self-cleavage is on record?
The self-cleavage was 0.415.

With A42G U79G as the variant, how does the self-cleavage read?
Its self-cleavage is 0.359.

With A42G U79C as the variant, how does the self-cleavage read?
Its self-cleavage is 0.0386.

With A43U C63G as the variant, how does the self-cleavage read?
Its self-cleavage is 0.394.

For G40U C63G, which self-cleavage is on record?
The self-cleavage was 0.348.

For G40U C63U, which self-cleavage is on record?
Its self-cleavage is 0.866.

With C41A U60A as the variant, how does the self-cleavage read?
The self-cleavage was 0.979.

Which self-cleavage does the source give for C41A U60G here?
The self-cleavage was 0.522.

For C41G U72G, which self-cleavage is on record?
Its self-cleavage is 0.795.

With C41A C63G as the variant, how does the self-cleavage read?
Its self-cleavage is 0.623.

Which self-cleavage does the source give for C41A C63U here?
The self-cleavage was 1.04.

For A43C G73C, which self-cleavage is on record?
Its self-cleavage is 0.309.

Which self-cleavage does the source give for A43G C85G here?
Its self-cleavage is 0.791.

For A42C G53U, which self-cleavage is on record?
The self-cleavage was 0.231.

For A42C G53C, which self-cleavage is on record?
Its self-cleavage is 0.297.

Which self-cleavage does the source give for G40U U47A here?
The self-cleavage was 0.427.

With A43U C61A as the variant, how does the self-cleavage read?
The self-cleavage was 0.532.

With C41A A71C as the variant, how does the self-cleavage read?
The self-cleavage was 0.499.

With A42C U72C as the variant, how does the self-cleavage read?
Its self-cleavage is 0.107.

Which self-cleavage does the source give for C41G A87G here?
Its self-cleavage is 0.772.

With A43C U72A as the variant, how does the self-cleavage read?
The self-cleavage was 0.151.

Which self-cleavage does the source give for A43C U72G here?
Its self-cleavage is 0.293.

For A43U U79G, which self-cleavage is on record?
Its self-cleavage is 0.162.

For A43U U79A, which self-cleavage is on record?
Its self-cleavage is 0.122.

Which self-cleavage does the source give for C41G C63A here?
The self-cleavage was 0.791.

Which self-cleavage does the source give for G40U G53C here?
Its self-cleavage is 0.519.

Which self-cleavage does the source give for A42G G67U here?
The self-cleavage was 0.565.

With C41A G52U as the variant, how does the self-cleavage read?
The self-cleavage was 0.772.

With A42U G55A as the variant, how does the self-cleavage read?
Its self-cleavage is 0.604.

Which self-cleavage does the source give for A42U G55U here?
The self-cleavage was 0.597.

For C41U C84U, which self-cleavage is on record?
The self-cleavage was 0.765.

For A42C U46C, which self-cleavage is on record?
The self-cleavage was 0.214.

For A43U G55U, which self-cleavage is on record?
The self-cleavage was 0.619.

For A43G G81U, which self-cleavage is on record?
The self-cleavage was 0.138.

With A42C G50A as the variant, how does the self-cleavage read?
Its self-cleavage is 0.325.

With C41A A51U as the variant, how does the self-cleavage read?
Its self-cleavage is 0.981.

For C41U A83G, which self-cleavage is on record?
The self-cleavage was 0.712.

Which self-cleavage does the source give for A43G U47C here?
Its self-cleavage is 0.748.

Which self-cleavage does the source give for C41U G68C here?
Its self-cleavage is 0.636.

With C41U G68A as the variant, how does the self-cleavage read?
The self-cleavage was 0.743.

Which self-cleavage does the source give for A43G G73C here?
The self-cleavage was 0.256.

For A43G G73U, which self-cleavage is on record?
The self-cleavage was 0.0755.

For C41G C61A, which self-cleavage is on record?
Its self-cleavage is 0.928.

Which self-cleavage does the source give for A42C A78G here?
Its self-cleavage is 0.317.

With A42C A83G as the variant, how does the self-cleavage read?
The self-cleavage was 0.129.

With A42C A83U as the variant, how does the self-cleavage read?
Its self-cleavage is 0.122.

For C44A A51U, which self-cleavage is on record?
Its self-cleavage is 1.13.

Which self-cleavage does the source give for C44A A51G here?
The self-cleavage was 0.898.

With A42U G73A as the variant, how does the self-cleavage read?
Its self-cleavage is 0.403.

For A42U C64U, which self-cleavage is on record?
Its self-cleavage is 0.594.

Which self-cleavage does the source give for A42G C84U here?
Its self-cleavage is 0.525.

For A42G C84A, which self-cleavage is on record?
Its self-cleavage is 0.554.

With A42G A78G as the variant, how does the self-cleavage read?
The self-cleavage was 0.

Which self-cleavage does the source give for A42G C75A here?
The self-cleavage was 0.0554.

Which self-cleavage does the source give for C41G G67A here?
The self-cleavage was 0.456.

With C41G G53A as the variant, how does the self-cleavage read?
Its self-cleavage is 0.485.

With A42U U79G as the variant, how does the self-cleavage read?
Its self-cleavage is 0.222.

For A42U U79C, which self-cleavage is on record?
Its self-cleavage is 0.0216.

For A42U U79A, which self-cleavage is on record?
Its self-cleavage is 0.145.

Which self-cleavage does the source give for A42G G52U here?
The self-cleavage was 0.501.
